The target of the assay is T1, FLAG-tagged wild-type (wt) ARRDC1 (Homo sapiens, UniProt Q8N5I2 1-433).
T1 construct: Expressed in 293T cells and immunoprecipitated with anti-FLAG; also called Flag-ARRDC1; arrestin domain-containing protein 1; not shown: FLAG tag
T1 sequence: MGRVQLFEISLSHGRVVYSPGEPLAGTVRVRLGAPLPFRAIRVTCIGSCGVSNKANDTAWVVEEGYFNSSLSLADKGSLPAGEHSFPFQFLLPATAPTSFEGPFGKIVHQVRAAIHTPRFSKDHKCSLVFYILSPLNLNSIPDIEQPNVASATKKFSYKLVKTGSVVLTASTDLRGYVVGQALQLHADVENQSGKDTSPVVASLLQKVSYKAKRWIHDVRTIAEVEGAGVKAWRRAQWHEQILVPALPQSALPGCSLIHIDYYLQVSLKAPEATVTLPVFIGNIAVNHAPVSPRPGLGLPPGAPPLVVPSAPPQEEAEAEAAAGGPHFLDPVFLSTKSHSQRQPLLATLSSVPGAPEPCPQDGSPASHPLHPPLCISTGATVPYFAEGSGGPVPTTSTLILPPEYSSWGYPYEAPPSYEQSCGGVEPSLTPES
The assay is described as follows: co-immunoprecipitation from transfected 293T cells, Western blot (FIG. 1D).

One molecule from patent US20180055768A1 (Harvard, published 2018) can be followed below.

B1: HA-tagged mutant (M95A) TSG101 (other)
chain: MAVSESQLKKMVSKYKYRDLTVRETVNVITLYKDLKPVLDSYVFNDGSSRELMNLTGTIPVPYRGNTYNIPICLWLLDTYPYNPPICFVKPTSSATIKTGKHVDANGKIYLPYLHEWKHPQSDLLGLIQVMIVVFGDEPPVFSRPISASYPPYQATGPPNTSYMPGMPGGISPYPSGYPPNPSGYPGCPYPPGGPYPATTSSQYPSQPPVTTVGPSRDGTISEDTIRASLISAVSDKLRWRMKEEMDRAQAELNALKRTEEDLKKGHQKLEEMVTRLDQEVAEVDKNIELLKKKDEELSSALEKMENQSENNDIDEVIIPTAPLYKQILNLYAEENAIEDTIFYLGEALRRGVIDLDVFLKHVRLLSRKQFQLRALMQKARKTAGLSDLY
notes: Expressed in 293T cells; also called TSG101 M95A; not shown: HA tag
On to B1, for which the binding result was “no binding”.
